The values that follow come from US20240358834A1 (University of Pennsylvania, published 2024).

Sequences and labels used below:
T1: human CD19 protein with a biotinylated AviTag (Acrobiosystems) (human, UniProt P15391 20-291, biotinylated AviTag)
T1 construct: Captured on streptavidin-coated microplate wells; also called biotinylated-AviTag-CD19; hCD19; not shown: AviTag
T1 sequence (looked up): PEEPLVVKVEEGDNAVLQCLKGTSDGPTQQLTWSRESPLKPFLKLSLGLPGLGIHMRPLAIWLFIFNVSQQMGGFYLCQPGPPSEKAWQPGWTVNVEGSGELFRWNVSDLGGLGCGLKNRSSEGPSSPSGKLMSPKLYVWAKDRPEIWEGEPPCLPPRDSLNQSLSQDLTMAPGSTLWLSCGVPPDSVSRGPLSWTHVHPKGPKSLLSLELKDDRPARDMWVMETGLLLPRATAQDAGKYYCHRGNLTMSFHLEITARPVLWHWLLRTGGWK

B1: scFv 13 (scFv)
scFv: QPVLTQPPSVSGALGQTVTISCSGSHTNIGSGFDVQWYQQLPGKSPQTLVYANINRPSGVPARFSGSKSGSTATLTITGVQAEDEADYYCQSYDDNFDYVFGSGTQLTVLGGGSSRSSSSGDGGSGGGGEVQLVESGGGLMKPGGSLKLSCLASGFTFSRYYMYWVRQAPGKGLQWVAQISSDGRRTYYADAVQGRFTISRDNVKNTVYLQMNSLSDEDTAVYYCVREDYFDFDYWGQGTLVTVSSASTTAPSVTSGQAGQHHHHHHGAYPYDVPDYAS
notes: Canine scFv (VL-linker-VH); also called P3-36; P3-38
B2: scFv 15 (scFv)
scFv: SYELTQPPSVSAALGQGVTISCIGSDTNIGNHYDVQWYQQLPGKSPRTIIYGNSDRPSGVPGRFSGSKSGNTATLTITGIQAEDEADYHCQSYDDDLDGHIVFGGGTHLTVLGGGSSRSSSSGGGGSGGGGEVQLVQSGGDLVKPGGSLRLSCVASGFTFNKYHMSWVRQAPGKGLQWVGKITSDGSATGYADAVKGRFTISRDNAKNTFYLQMDSLRAEDTAMYYCARDQSSWGTGNFDYWGQGTLVTVSSASTTAPSVTSGQAGQHHHHHHGAYPYDVPDYAS
notes: Canine scFv (VL-linker-VH); also called P3-59A
B3: scFv 1 (scFv)
scFv: QAVLNQPASVSAALGQRVTISCNTNIGSPYDVQWYQQLPGKSPKTIIYGNSNRPSGVPVRFSGSKSGSTATLTIAGIQAEDEADYYCQSYDDSLDGRVVFGGGTQLTVLGGGSSRSSSSGGGGSGGGGEVQLVESGGDLVKPGGSLRLSCVASGFTFSNHEMYWVRQAPGKGLEWVARIYDSGSRTRYADAVKGRFTISRDNAKNTLYLQMNSLTAEDTAVYFCAGGNSRGWTEFGMDYWGPGTLVTVSSASTTAPSVTSGQAGQHHHHHHGAYPYDVPDYAS
notes: Canine scFv (VL-linker-VH); also called scFv_01; P3-15
B4: scFv 14 (scFv)
scFv: QSVLNQPPSVSAALGQRITISCTGSHTNIGSGYDVQWYQQLPGKSPRTIIYGNSDRPSGVPVRFSGSKSGNTATLTITGIQAEDEADYYCQSYDDNLNDPYVFGSGTQLTVLGGGSSRSSSSGGGGSGGGGEVQLVQSGGDLVKPGGSLRLSCVASGFAFSGKTMQWVRQAPGKGLQWVAYIQHDGSRTSYADAVKGRFTISRDNAKNTLYLQMDSLRAEDTAVYYCADHPWYGPEYWGQGTPVTVSSESPSPPNLTSGQAGQHHHHHHGAYPYDVPDYAS
notes: Canine scFv (VL-linker-VH); also called P3-58
B5: scFv 11 (scFv)
scFv: QPVLTQPPSVSGALGQTVTISCSGSHTNIGSGFDVQWYQQLPGKSPQTLVYANINRPSGVPARFSGSKSGSTATLTITGVQAEDEADYYCQSYDDNFDYVFGSGTQLTVLGGGSSRSSSSGGGGSGGGGEVQLVESGGDLVKPGGSLRLSCVASGFTFSDYSMSWVRQSPGKGLQWVAAIMTSGSTYYADAVKGRFTISRDNAKNTLYLQMDSLRAEDTAVYYCAHDYWFDFWGQGTLVTVSSASTTAPSVTSGQAGQHHHHHHGAYPYDVPDYAS
notes: Canine scFv (VL-linker-VH); also called P3-57
B6: scFv 10 (scFv)
scFv: QAVLNQPASVSGALGQTVTISCSGSHTNIGSGFDVQWYQQLPGKSPQTIIYANINRPSGVPARFSGSKSGSTATLTITGVQAEDEADYHCQSFDDDLDGPVFGGGTHLTVLGGGSSRSSSSGGGGSGGGGEVQLVQSGGDLVKPGGSLKISCVASGLTFNRNYMTWIRQAPGKGLQWVSEINPDGSTTSYTDAVRGRFTISRDNAKNTLYLQMNSMRDEDTAVYYCARSSWGSFDYWGQGTLVTVSSASTTAPSVTSGQAGQHHHHHHGAYPYDVPDYAS
notes: Canine scFv (VL-linker-VH); also called P3-01
B7: scFv 12 (scFv)
scFv: SYELTQPPSATVTLRQTARLTCGGENIGRKSVQWYQQKPGQSPLLIIYADSSRPSGIPERFSGANSGNTASLTISGALAEDEADYYCQIWDRNINVFGSGTQLTVLGGGSSRSSSSGGGGSGGGGEEQLVEFGGDLVKPAGSLRLSCVASGFTFSSYDMSWVRQAPGKGLQWVATISYDGSSTYYTDAVKGRFTVSRDNAKNTLYLQMNSLRAEDTALYYCAKDSGSWSHFYGLDTWGHGTSVFVSSASTTAPSVTSGQAGQHHHHHHGAYPYDVPDYAS
notes: Canine scFv (VL-linker-VH); also called P3-48

The target in this assay is T1, human CD19 protein with a biotinylated …. As to the kind of experiment: phage ELISA, biotinylated AviTag CD19 on streptavidin wells; signal ratio to FMC63 standard. The text has this: To identify unique human CD19-binding monoclonal scFv from the panned libraries, individual phage antibody clones were expanded, assessed for binding to CD19 by ELISA, and subjected to nucleotide sequencing to identify those clones that were unique. A total of 84 scFvs were randomly selected from the panned libraries (70 from P3 and 14 from P4).
(In general: In an ELISA, binding on a coated surface is turned into a signal by an enzyme label.)
For B1, the “ELISA hCD19 (ratio FMC63)” value is 0.28 ratio to FMC63.
In the case of B2 it was 0.99 ratio to FMC63.
In the case of B3 it was 0.84 ratio to FMC63; in that of B4, 0.59 ratio to FMC63.
In the case of B5 it was 0.31 ratio to FMC63.
As for B6, the “ELISA hCD19 (ratio FMC63)” value is 0.77 ratio to FMC63.
In the case of B7 it was 0.16 ratio to FMC63.
